In paper PMC12053377 one finds stoichiometry N data, which are given here for one substance.

The stoichiometry N is the number of molecules, sites or subunits per partner or assembly.

The target of this experiment is SARS-CoV-2 S HexaPro (Spike 6P) ectodomain trimer (SARS-CoV-2 | not stated) (UniProt P0DTC2). Kind of experiment: cryo-EM structure.

“SARS-CoV-2 S HexaPro (Spike 6P) ectodomain trimer (from UniProt P0DTC2 14-1208) (domain or fragment)” registered a stoichiometry N of 3 protomers.
